Assay: yeast display, Sf9 membrane polyspecificity reagent, FACS + sequencing; frameworks hold sequencing errors
Summary of the method: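 Synthetic nanobody libraries on Saccharomyces cerevisiae BJ5465 were galactose-induced for 36–48 hours, stained 1 hour at 4 °C with 10% biotinylated, detergent-solubilized Sf9 membrane reagent and enriched on streptavidin microbeads. FACS then separated cells into low and high (top ~1%) gates by anti-HA (expression) and streptavidin (reagent binding) fluorescence. Genes were colony-PCR amplified, MiSeq 2 × 250 sequenced and CDR-length filtered. A clone's polyreactivity label is that of its gate of origin.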

Sequence	polyreactivity (PSR sort gate)
QVQLVESGGGVVQAGGSLRLSCAASGNIFFGNAMGWYRQAPGKERELVAAITKRGGSTYYADSVKGRFTISRDNAKNTVYLQMNSLKPEDTAVYYCAAVSYSKRTWSMNYWGQGTQVTVSS	high polyreactivity
QVQLVESGGGVVQAGGSLRLSCAASGRIFLKYTMGWYRQAPGKARELVAAISRGGSTYYADSVKGRFTISRDNAKNTVYLQMNSLKPEDTAVYYCAATSYRRTGYNYWGQGTQVTVSS	high polyreactivity
QVQLVESGGGVVQAGGSLRLSCAASGRIFRINGMGWYRQAPGKEREFVAAITSGGGTYYADSVKGRFTITRDNAKNTVYLQMNSLKPEDTAVYYCAAPSYRTRYYYWGQGTQVTVSS	high polyreactivity
QVQLVESGGGVVQAGGSLRLSCAASGRIIKSYAMGWYRQAPGKERDLVAAITRGGRTSYADSVKGRFTISRDNAKNTVYLQMNSLKPEDTAVYYCADDGGWRYHPFSSLFDYWGQGPQVTVSS	low polyreactivity
QVQLVESGGGVVQAGGSLRLSCAASGRIISYNAMGWYRQAPGKERELVAAISWGGGSTYYADSVKGRFTISRDNAKNTVYLQMNSLKPEDTAVSYCAKGWYRIKRNDYWGQGTQVTVSS	low polyreactivity
QVQLVESGGGVVQAGGSLRLSCAASGRNFGHYTMGWYRQAPGIERELVARISQSGGSTRYADSVKGRFTISRDNAKNTVYLQMNSLKPEDTAVYYWATYRRHFFYFAIPGYSSAYEYSGQGTQVTVSS	high polyreactivity
QVQLVESGGGVVQAGGSLRLSCAASGRTFPGNAMGWYRQAPGKERELVASITWSTGSTYYADSVKGRFTISRDNAKNTVYLQMNSLKPEDTAVYYCAADQSVRSYQYSVHRGYWGQGTQVTVSS	high polyreactivity
QVQLVESGGGVVQAGGSLRLSCAASGRTFPGYAMGWYRQAAGKERELVAAITRGSTNYADSVKGRFTISRDNAKNTVYKQMNSLKPEATAVYYCAADFQYYFFWEEDYWGHGTQVTVSS	low polyreactivity
QVQLVESGGGVVQAGGSLRLSCAASGRTFYRYAMGWYRQAPGKERELDAAISWRGGSTRYADSVKGRFTISRDNAKNTVYFQMNSLKPEDTAVYSCATRSTYWGWSSYGMDHWGQGTQVTVSS	high polyreactivity
QVQLVESGGGVVQAGGSLRLSCAASGSIFDGYARGWYRQAPGKERELVAAITRDGGSTHYADSVKGRFTISRDNAKNTVYLEMNSLKPEDTAVYYCASRDHAFRYYRNPFKGKYDYWGQGTQVTVSS	low polyreactivity
QVQLVESGGGVVQAGGSLRLSCAASGSIFISNAMGWYRQAPGTERELVAAITLTGTSTYYADSVKGRFTISRDNAKNTVYLQMNSLKPEDTAVYYCAAEYYYIVTYDFGYWGQGTQVTVSS	low polyreactivity
QVQLVESGGGVVQAGGSLRLSCAASGSIFSLYAMGWYRQAPGNERELVDAISSSGTSTYYADSVKGRFTISRDNAKNSVYLHMNSLKPEDTAVYYCNAYRRRATYNGDYWGQGTQVTVSS	high polyreactivity
QVQLVESGGGVVQAGGSLRLSCAASGSTFFYYAMGWYRQAPGKERELVATIRGSAGRTYYADSVKGRFTISRDHAKYTVYLQMNCLKPEDTAVYYCARRYWPGSAYWIYDYWGQGTQVTVSS	high polyreactivity
QVQLVESGGGVVQAGGSLRLSCAASGSTFGYYAMGWYRQAPGKERELVAAISQGAGRTYFADSVKGRFTISRDIAKNTVYLQMNSLKPEDTAVYYCAGSVTVHRWAYGYCGQGTQVTVSS	high polyreactivity
QVQLVESGGGVVQAGGSLRLSCAASGSTFYANAMGWSRQAPGKERELVAAISSGGSTYYADSVKGRFTISRDNAKNTVYLQMNSLKPDDTAVYYCAKPFYSYRYGFGYWGQGTQVTVSS	low polyreactivity
QVQLVESGGGVVQAGGSLRLSCAASGSTFYPNAMGWYRQAPGKERELVAAISRGTRTKYADSVKGRFTISRDNAKNTVYLQMNSLKPEDTAVYYCAADTGTGLDWGQGTQVTVSS	high polyreactivity
QVQLVESGGGVVQAGGSLRLSCAATGSIFISYDTGLYRQAPGKESELVAAITWSGDSTYYADSVKARFTISRDNAKNSVYLQMNSLKPEDTAVYYCAADWYFRNQRGYYWGQGTQVTVSS	low polyreactivity
QVQLVESGGGVVQAGGSLRLSCAAYGFIYKQNAMGWYRQAPGKERELVATITRGGDTKYADSVKGRFTISRDNAKNTVYLLMNSLKPEDTAVEYCAARYTPSSSIYRFYNFYGYDYWGQGTQVIVSS	high polyreactivity
QVQLVESGGGVVQAGGSLRLSGAASGSTLLRNAMGWYRQAPGKAWELVAVITYSGGSTYYADSVKGRFTISRDQAKNTVYLQMNSLIPEDTAVYYCAADKWYYVRYATDAYSKFDYWGQGTQVTVSS	low polyreactivity
QVQLVESGGGVVQAGGSLRLSSAASGRIFQAYAMGWYRQAPGKEWELVAAISRSGGGTYYSDSVKGRFTISRDYAKNTVYLQMNSLKPEDTAVYYCNARGSTARGRGYWGQGTQVTVTS	high polyreactivity
QVQLVESGGGVVQAGRSLRLSCAASGSPFAYNSMGWYRKAPGKERELVAAISWRGTRTYYADSVKGRFTISRDTAKNTVNLQMNSLKPEDTAVYYCATKYGISYDYWGQGTHVTVSS	high polyreactivity
QVQLVESGGGVVQAGVTLRLSCAASGRIFHYNAMGWYRQAPGKEREMVAAFTWIGGSTYADSVKGRFTISRDNSKNSVYLLMNSLKPEDTAVYYFNARYIYRFDFWGQGTQVTVSS	low polyreactivity

Sequence	polyreactivity (PSR sort gate)
QVQLVESGGGVVQARGSLRLSCAASGRIFDNAMGWYRQAPGKERELVAAISGGSTYYADSVKGRFTISRDNAKNTVYLQMHSLKPEDTAVYYCNTDPLGRTVVYGGDDYWGQGTQVTVSS	low polyreactivity
QVQLVESGGLLVKAGGSLRLSCAASGSIFYLYVMGWYRQAPGIERELVAANTWSGGSTYYADSVKGRFTISRDNAKNTVYLQMNILIPEDTAVYYCAARGYVPYVKYDYWGQGTQVTVSS	high polyreactivity
QVQLVESGGLLVQGGVSLRLSCAASGSTLYIYAMGWYRQAPGKERELVAANTWSGGRTFYADSVKGRFTISRDNAKNTVSLQMNSLTPEDTAVYYCAARILSDKTGSRYYYWGQGTQVTVSS	high polyreactivity
QVQLVESGGRIVQAGGSLRLSCAASGSILNNYAMGWYRQAPGKERELVAAISSSGGTNYADSVKGRFTISRDNEKNTVFLQMNSLKPEDTAVYYCNADVLDGGYDYWGQGTQVTVSS	low polyreactivity
QVQLVESGGRLLQAGGSLRLSCAASGSIFVGYAMGWYRQAPGKEWELVAAISASGGRTYYADSVKGRFTISRDNAKTTVYLQMNSLKPEDTAVYYCATDDYWGRGTQVTVSS	high polyreactivity
QVQLVESGGRLRQAGGSLRLSCAASGSTFVSYAMGWYRQAPGKERELVAAISTSGGRSYYADSVKGRFTISRDNAKNTVYLQMNSLKREDTAVYYCAAEHYQRWWPYWYWPYYWGQGTQVTVSS	high polyreactivity
QVQLVESGGRLVHAGGSLRLSCAASGFTFSDYAMGGYRQEPGKERELVAAISTRGSSTYYADSVKGLFTISRDNEKTTVYLEMNSLKPEDTAVYYCNAVGSYSGYYYWGQGNQVTVSS	high polyreactivity
QVQLVESGGRLVKARGSLRISFADSVRTFIRNAMGWYRQAPGKERELVAAITSSGGSTYYADSVKGRFTISRDNAKITVYLQMNILKPEDTAVYYCAAVNSKRHRRYNYWGQGTQVTVSS	high polyreactivity
QVQLVESGGRLVQAGGRLRLICAASGFIFSDYAMGWYRQAPGKERELVAAISWRGGSTYYADSVKGRFTISRDKEKNSVYLQMNSLKPEDTAVYYCAADYGAYDMDYWGQGTQVTVSS	high polyreactivity
QVQLVESGGRLVQAGGRLRLSCAASGSIFMKNAMGWYRPAHGKERELVADITRSGDRTYYADSVKGRFTISRDNAKNTVYLQMNSLKPEDTAVYYCAKYYVWPRYGYSGQGTQVTVSS	high polyreactivity
QVQLVESGGRLVQAGGSHRLSCAASGRTFFHYAMGWYRQSPGKERELVAAITYRGTSTYYADSVKGRFTISRDNAKYTVYIQMNSLKPEDTAVYYCNAYSTRGGWSYRGDSWGQGTQVTVSS	high polyreactivity
QVQLVESGGRLVQAGGSLRISCDASGFIFVRNAMGWSRQAPGTEWELVAASTLCTGSTYYADSVKGRFTISRDNAKITVYLQMKSLKPEDTAVYYCNANKRIRPYRPGMDYWGHGTQVTVSS	high polyreactivity
QVQLVESGGRLVQAGGSLRISSAASRFILFPYAMGWYRQAPGKERELVAAIRSDDTTNYADSVKGRFTISRDNAKNTVYLQMNSLKPEDTAVYYCATACYSWVSYDYWGQGTQVTVSS	low polyreactivity
QVQLVESGGRLVQAGGSLRLICAASGSIFGHYAMGWYRQAPRKEREFVAAIDWSGGSSYYADSVKGRFTISRDNAKNTVYLQMISLKPEDTAVYYCAARVRERYYWGQGTQVTVSS	high polyreactivity
QVQLVESGGRLVQAGGSLRLRCAASGRTFVTNAMGWYRQAPGQERELVAAISGSGGSTYYADSVKGRFTISRDNAKNTFYLQMNSLKPEDTAVYDCATSYSLGYVRYGYWGQGSQVTVSS	high polyreactivity
QVQLVESGGRLVQAGGSLRLRCAASGYIFVYNAKGWYRQAPGKARELVAAITDGGGSTYADSVKGRFTISRDNAKNTVYLQMNSLKPEDTAVYYCAARYSDTTWYVLYYYWVQGTQVTVSS	low polyreactivity
QVQLVESGGRLVQAGGSLRLSCAASGFIFWSYAMGWYRQARGKERELVAAISWSGGRTYYADSVKGRFTISRDNAKNTVYLQMNSLKPEDTAVYYCAAVKRYSSQYPALDYWGQGTQVTVSS	high polyreactivity
QVQLVESGGRLVQAGGSLRLSCAASGFTFYGYAMGWYRQAPGKERELVAAISRGGGRTYYADSVKGRFTISRDNAKNTVYLQMNSLKPEDTAVYYCAAQGGSKTSSRSYGYWGQGTQVTVSS	high polyreactivity
QVQLVESGGRLVQAGGSLRLSCAASGFTIPHYAMGWYRQAPGKERELVAVISFSGGRTYYADSVKGRFTISRDNAKNTVYLQMNSLKPEDTAVYYCPAGFWDDYGKYYYWGQGTQVTVSS	high polyreactivity
QVQLVESGGRLVQAGGSLRLSCAASGFTYQGNAMGWYRQAPGKERVLVAAISRGGSTYYADSVKGRFTISRDNAKNTVYLQMNRLKPEDTAVYYGAAKPSVDLDYWGQGTQVTVSS	high polyreactivity
QVQLVESGGRLVQAGGSLRLSCAASGIFYTYDMGRYRQAPGKERELVATINSGGSTNYADSVKGRFTISRDNAKNTVYLQMNSLKPEDTAVYYCAAAEDVYSERPRYDYWGQGTQVTVSS	low polyreactivity
